The target of the test is thrombin. Put plainly: cell-based or functional assay.
On to “ATIII DG44 peak (1) fraction (recombinant human antithrombin III produced by the CHO/DG44 transformant pKAN-ATIII AFDG44, heparin-affinity peak (1)) (from UniProt P01008 33-464)”, for which the Secondary rate constant (+ hep): thrombin inhibition secondary rate constant in the presence of heparin is 8.7e+06 M⁻¹ s⁻¹ and the Secondary rate constant (- hep): thrombin inhibition secondary rate constant in the absence of heparin came out at 7700 M⁻¹ s⁻¹.

Regarding “ATIII MS705 peak (3) fraction (recombinant human antithrombin III produced by the FUT8 gene-double-knockout CHO/DG44 transformant pKAN-ATIII AFMS705, heparin-affinity peak (3)) (from UniProt P01008 33-464)”, the Secondary rate constant (+ hep): thrombin inhibition secondary rate constant in the presence of heparin is 2.6e+07 M⁻¹ s⁻¹ and the Secondary rate constant (- hep): thrombin inhibition secondary rate constant in the absence of heparin came to 8800 M⁻¹ s⁻¹.

As to “ATIII DG44 peak (2) fraction (recombinant human antithrombin III produced by the CHO/DG44 transformant pKAN-ATIII AFDG44, heparin-affinity peak (2)) (from UniProt P01008 33-464)”, the Secondary rate constant (+ hep): thrombin inhibition secondary rate constant in the presence of heparin was 2e+07 M⁻¹ s⁻¹ and the Secondary rate constant (- hep): thrombin inhibition secondary rate constant in the absence of heparin was 8600 M⁻¹ s⁻¹.

As for “ATIII MS705 peak (2) fraction (recombinant human antithrombin III produced by the FUT8 gene-double-knockout CHO/DG44 transformant pKAN-ATIII AFMS705, heparin-affinity peak (2)) (from UniProt P01008 33-464)”, the Secondary rate constant (+ hep): thrombin inhibition secondary rate constant in the presence of heparin was determined as 2.5e+07 M⁻¹ s⁻¹.

Take “Neuart (human plasma-derived antithrombin III preparation, manufactured by Mitsubishi Pharma Corporation) (from UniProt P01008 33-464)”: the Secondary rate constant (+ hep): thrombin inhibition secondary rate constant in the presence of heparin came to 2.3e+07 M⁻¹ s⁻¹ and the Secondary rate constant (- hep): thrombin inhibition secondary rate constant in the absence of heparin was found to be 8200 M⁻¹ s⁻¹.

The values above are taken from EP1676860A1.
